Experimental findings from ChEMBL document CHEMBL1145552, “Substrate specificity and diastereoselectivity of strictosidine glucosidase, a key enzyme in monoterpene indole alkaloid biosynthesis” (Bioorg Med Chem Lett, 2008) are described below.

Data set [1] concerns the target T1, Strictosidine beta-glucosidase (Catharanthus roseus) (UniProt Q9M7N7).
T1 sequence (whole entry): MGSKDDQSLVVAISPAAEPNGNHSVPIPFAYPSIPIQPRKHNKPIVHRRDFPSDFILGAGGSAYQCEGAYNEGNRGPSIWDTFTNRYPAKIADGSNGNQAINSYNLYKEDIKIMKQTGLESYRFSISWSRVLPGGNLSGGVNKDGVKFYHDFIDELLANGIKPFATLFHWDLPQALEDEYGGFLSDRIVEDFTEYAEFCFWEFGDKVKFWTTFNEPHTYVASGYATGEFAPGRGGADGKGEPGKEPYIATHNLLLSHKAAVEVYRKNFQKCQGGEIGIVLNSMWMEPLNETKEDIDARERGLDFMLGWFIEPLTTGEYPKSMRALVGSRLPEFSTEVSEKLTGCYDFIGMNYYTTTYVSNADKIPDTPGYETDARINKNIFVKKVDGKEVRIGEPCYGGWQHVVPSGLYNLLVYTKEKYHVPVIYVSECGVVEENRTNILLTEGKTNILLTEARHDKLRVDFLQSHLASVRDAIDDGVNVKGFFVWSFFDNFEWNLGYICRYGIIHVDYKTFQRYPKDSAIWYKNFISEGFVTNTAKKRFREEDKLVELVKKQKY
As to the kind of experiment: Ratio of relative Vmax to K0.5 of Catharanthus roseus strictosidine glucosidase.

Substrate in data set [2]: C=C[C@H]1[C@H](O[C@@H]2O[C@H](CO)[C@@H](O)[C@H](O)[C@H]2O)OC=C(C(=O)OC)[C@H]1C[C@@H]1NCCc2c1[nH]c1c(C)cccc21
The data set can be described thus: (§1) Activity of Catharanthus roseus strictosidine glucosidase.

Substrate in data set [3]: C=C[C@H]1[C@H](O[C@@H]2O[C@H](CO)[C@@H](O)[C@H](O)[C@H]2O)OC=C(C(=O)OC)[C@H]1C[C@@H]1NCCc2c1[nH]c1ccc(OC)cc21
Described as §1.

Substrate in data set [4]: C=C[C@H]1[C@H](O[C@@H]2O[C@H](CO)[C@@H](O)[C@H](O)[C@H]2O)OC=C(C(=O)OC)[C@H]1C[C@@H]1NCCc2c1[nH]c1ccc(F)cc21
The description is as §1.

Substrate in data set [5]: C=C[C@H]1[C@H](O[C@@H]2O[C@H](CO)[C@@H](O)[C@H](O)[C@H]2O)OC=C(C(=O)OC)[C@H]1C[C@@H]1NCCc2c1[nH]c1cc(F)ccc21
Described as §1.

Substrate in data set [6]: C=C[C@H]1[C@H](O[C@@H]2O[C@H](CO)[C@@H](O)[C@H](O)[C@H]2O)OC=C(C(=O)OC)[C@H]1C[C@@H]1NCCc2c1[nH]c1ccccc21
The data set is described as §1.

Substrate in data set [7]: C=C[C@H]1[C@H](O[C@@H]2O[C@H](CO)[C@@H](O)[C@H](O)[C@H]2O)OC=C(C(=O)OC)[C@H]1C[C@@H]1NCCc2c1[nH]c1cc(OC)ccc21
The description is as §1.

Substrate in data set [8]: C=C[C@H]1[C@H](O[C@@H]2O[C@H](CO)[C@@H](O)[C@H](O)[C@H]2O)OC=C(C(=O)OC)[C@H]1C[C@@H]1NCCc2c1[nH]c1cccc(C)c21
The data set is described as §1.

Substrate in data set [9]: C=C[C@H]1[C@H](O[C@@H]2O[C@H](CO)[C@@H](O)[C@H](O)[C@H]2O)OC=C(C(=O)OC)[C@H]1C[C@@H]1NCCc2c1[nH]c1cc(C)ccc21
The data set is described as §1.

Substrate in data set [10]: C=C[C@H]1[C@H](O[C@@H]2O[C@H](CO)[C@@H](O)[C@H](O)[C@H]2O)OC=C(C(=O)OC)[C@H]1C[C@@H]1NCCc2c1[nH]c1ccc(C)cc21
Described as §1.

As for `C=C[C@H]1[C@H](O[C@@H]2O[C@H](CO)[C@@H](O)[C@H](O)[C@H]2O)OC=C(C(=O)OC)[C@H]1C[C@@H]1NCCc2c1[nH]c1ccc(OC)cc21`, the Ratio in [1] was 0.3 min⁻¹.

As to `C=C[C@H]1[C@H](O[C@@H]2O[C@H](CO)[C@@H](O)[C@H](O)[C@H]2O)OC=C(C(=O)OC)[C@H]1C[C@@H]1NCCc2c1[nH]c1cc(C)ccc21`, in data set [1], the Ratio is 0.5 min⁻¹.

As to `C=C[C@H]1[C@H](O[C@@H]2O[C@H](CO)[C@@H](O)[C@H](O)[C@H]2O)OC=C(C(=O)OC)[C@H]1C[C@@H]1NCCc2c1[nH]c1cccc(C)c21`, the Ratio in data set [1] came to 0.2 min⁻¹.

Consider `C=C[C@H]1[C@H](O[C@@H]2O[C@H](CO)[C@@H](O)[C@H](O)[C@H]2O)OC=C(C(=O)OC)[C@H]1C[C@@H]1NCCc2c1[nH]c1cc(F)ccc21`, for which the Ratio in data set [1] was 0.7 min⁻¹.

For the molecule `C=C[C@H]1[C@H](O[C@@H]2O[C@H](CO)[C@@H](O)[C@H](O)[C@H]2O)OC=C(C(=O)OC)[C@H]1C[C@@H]1NCCc2c1[nH]c1ccccc21`, in data set [1], the Ratio is 1 min⁻¹.

In the case of `C=C[C@H]1[C@H](O[C@@H]2O[C@H](CO)[C@@H](O)[C@H](O)[C@H]2O)OC=C(C(=O)OC)[C@H]1C[C@@H]1NCCc2c1[nH]c1cc(OC)ccc21`, in data set [1], the Ratio came out at 0.2 min⁻¹.

As for `C=C[C@H]1[C@H](O[C@@H]2O[C@H](CO)[C@@H](O)[C@H](O)[C@H]2O)OC=C(C(=O)OC)[C@H]1C[C@@H]1NCCc2c1[nH]c1c(C)cccc21`, in data set [1], the Ratio amounted to 0.3 min⁻¹.

Consider `C=C[C@H]1[C@H](O[C@@H]2O[C@H](CO)[C@@H](O)[C@H](O)[C@H]2O)OC=C(C(=O)OC)[C@H]1C[C@@H]1NCCc2c1[nH]c1ccc(C)cc21`, for which the Ratio in [1] came to 0.6 min⁻¹.

Regarding `C=C[C@H]1[C@H](O[C@@H]2O[C@H](CO)[C@@H](O)[C@H](O)[C@H]2O)OC=C(C(=O)OC)[C@H]1C[C@@H]1NCCc2c1[nH]c1ccc(F)cc21`, the Ratio in data set [1] was 0.7 min⁻¹.

B1: Strictosidine beta-glucosidase (Catharanthus roseus), Q9M7N7 (protein)
chain: T1 sequence (whole entry)
B1: the Km in [2] was 140 µM; in [3], 370 µM; in data set [4], 150 µM; in data set [5], 120 µM; in [6], 220 µM; in [7] it was 430 µM. Moreover, the Km turned out to be 220 µM in data set [8], 92 µM in data set [9] and 71 µM in data set [10]. The Vmax in [2] was 0.016 mM/min; in data set [3] it was 0.035 mM/min; in data set [4] it was 0.038 mM/min; in data set [5], 0.032 mM/min; in [6], 0.078 mM/min; in data set [7], 0.037 mM/min. Moreover, the values for the maximal velocity (Vmax) in data set [8], in [9] and in [10] were 0.018 mM/min, 0.017 mM/min and 0.016 mM/min, respectively.
